From patent US20240400614A1, “CLEAVABLE PEPTIDES AND METHODS OF USE THEREOF” (Bright Peak Therapeutics AG, priority 2023, published 2024)
Square brackets hold non-standard residues; d marks the D form. Ends that are not written are not given here. Tyr(3-NO2) = N[C@@H](Cc1ccc(O)c([N+](=O)[O-])c1)C(=O)O; 2Abz = Nc1ccccc1C(=O)O

Assays:
Type in all cases: biochemical
MMP-2 = target: T1, MMP-2 (Homo sapiens, UniProt P08253); assay: FRET peptide cleavage efficiency with MMP-2
T1 construct: purchased SIGMA PF023
T1 sequence (P08253 110-660): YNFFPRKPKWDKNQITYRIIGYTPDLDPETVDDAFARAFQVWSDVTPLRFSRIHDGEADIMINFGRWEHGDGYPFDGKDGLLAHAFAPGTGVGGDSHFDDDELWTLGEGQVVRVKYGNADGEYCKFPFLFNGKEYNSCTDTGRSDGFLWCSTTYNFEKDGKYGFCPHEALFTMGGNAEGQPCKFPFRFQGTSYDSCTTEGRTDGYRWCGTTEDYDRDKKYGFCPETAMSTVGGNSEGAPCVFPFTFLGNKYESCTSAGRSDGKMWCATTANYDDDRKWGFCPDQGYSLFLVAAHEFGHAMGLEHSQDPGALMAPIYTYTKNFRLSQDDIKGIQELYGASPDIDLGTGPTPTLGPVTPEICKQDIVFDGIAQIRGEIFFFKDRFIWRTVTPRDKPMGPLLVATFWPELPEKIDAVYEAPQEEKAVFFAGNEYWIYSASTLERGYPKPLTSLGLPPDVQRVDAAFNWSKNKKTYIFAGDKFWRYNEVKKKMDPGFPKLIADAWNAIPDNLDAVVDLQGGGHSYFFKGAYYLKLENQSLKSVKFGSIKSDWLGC

matriptase = target: T2, matriptase (Homo sapiens, UniProt Q9Y5Y6); assay: FRET peptide cleavage efficiency with matriptase
T2 construct: purchased R&D Systems 3946-SEB
T2 sequence (Q9Y5Y6 615-855 limits assumed): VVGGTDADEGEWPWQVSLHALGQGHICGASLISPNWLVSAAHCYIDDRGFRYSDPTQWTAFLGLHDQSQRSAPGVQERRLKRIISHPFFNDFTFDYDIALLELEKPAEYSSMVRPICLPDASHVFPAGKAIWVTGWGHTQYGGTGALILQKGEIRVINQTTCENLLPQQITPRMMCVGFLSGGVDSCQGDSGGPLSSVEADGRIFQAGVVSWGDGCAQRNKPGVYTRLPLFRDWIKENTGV

MMP-7 = target: T3, MMP-7 (Homo sapiens, UniProt P09237); assay: FRET peptide cleavage efficiency with MMP-7 (standard pH 7.5; also pH 6.5)
T3 construct: purchased SIGMA CC1059
T3 sequence (P09237 95-267): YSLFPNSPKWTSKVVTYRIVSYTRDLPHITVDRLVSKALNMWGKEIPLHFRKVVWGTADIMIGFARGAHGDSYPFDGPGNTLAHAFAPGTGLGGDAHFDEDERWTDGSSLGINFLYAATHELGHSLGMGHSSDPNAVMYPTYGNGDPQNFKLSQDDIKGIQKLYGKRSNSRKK

MMP-9 = target: T4, MMP-9 (Homo sapiens, UniProt P14780); assay: FRET peptide cleavage efficiency with MMP-9 (standard pH 7.5; also pH 6.5)
T4 construct: purchased SIGMA PF024
T4 sequence (P14780 94-707): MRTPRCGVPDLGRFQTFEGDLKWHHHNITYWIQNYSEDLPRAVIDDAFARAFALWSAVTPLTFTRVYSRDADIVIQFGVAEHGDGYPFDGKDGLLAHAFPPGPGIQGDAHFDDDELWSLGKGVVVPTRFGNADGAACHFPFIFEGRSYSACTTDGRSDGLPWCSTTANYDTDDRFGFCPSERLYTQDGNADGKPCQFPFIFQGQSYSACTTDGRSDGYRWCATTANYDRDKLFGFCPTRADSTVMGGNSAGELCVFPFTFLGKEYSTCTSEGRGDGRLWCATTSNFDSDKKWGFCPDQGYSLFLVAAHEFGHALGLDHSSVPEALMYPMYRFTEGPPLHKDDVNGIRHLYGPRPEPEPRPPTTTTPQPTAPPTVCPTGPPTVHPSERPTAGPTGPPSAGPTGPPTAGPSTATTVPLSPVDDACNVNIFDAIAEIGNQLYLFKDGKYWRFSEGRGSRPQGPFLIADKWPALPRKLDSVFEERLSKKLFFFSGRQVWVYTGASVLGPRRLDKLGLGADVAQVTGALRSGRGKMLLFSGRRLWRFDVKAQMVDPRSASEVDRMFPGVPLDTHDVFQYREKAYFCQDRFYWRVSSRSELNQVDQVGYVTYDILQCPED

uPA = uPA (Homo sapiens, UniProt P00749); assay: FRET peptide cleavage efficiency with uPA
[1] = t = 60 min, standard conditions (Table 8)
[2] = t = 120 min, standard conditions (Table 8)
[3] = t = 15 min, standard conditions (Table 8)
[4] = t = 15 min, 200 uM linker, 1 ug/ml protease, 37° C., buffer C pH 7.5
[5] = t = 60 min, 200 uM linker, 1 ug/ml protease, 37° C., buffer C pH 7.5
[6] = t = 120 min, 200 uM linker, 1 ug/ml protease, 37° C., buffer C pH 7.5
[7] = t = 15 min, 200 uM linker, 1 ug/ml protease, 37° C., buffer B pH 9.0
[8] = t = 60 min, 200 uM linker, 1 ug/ml protease, 37° C., buffer B pH 9.0
[9] = 200 uM linker, 1 ug/ml protease, 37° C., buffer B pH 9.0
[10] = t = 15 min, 200 uM linker, 1 ug/ml protease, 37° C., buffer A pH 8.5
[11] = t = 60 min, 200 uM linker, 1 ug/ml protease, 37° C., buffer A pH 8.5
[12] = t = 120 min, 200 uM linker, 1 ug/ml protease, 37° C., buffer A pH 8.5

% cleavage MMP-2 t = 15 min (MMP-2; t = 15 min (Table 9)) [%] | % cleavage MMP-2 t = 60 min (MMP-2; t = 60 min (Table 9)) [%] | % cleavage MMP-2 t = 120 min (MMP-2; t = 120 min (Table 9)) [%] | % cleavage MMP-7 t = 15 min (MMP-7; t = 15 min (Table 9)) [%] | % cleavage MMP-7 t = 60 min (MMP-7; t = 60 min (Table 9)) [%] | % cleavage MMP-7 t = 120 min (MMP-7; t = 120 min (Table 9)) [%] | % cleavage MMP-9 t = 15 min (MMP-9; t = 15 min (Table 9)) [%] | % cleavage MMP-9 t = 60 min (MMP-9; t = 60 min (Table 9)) [%] | % cleavage MMP-9 t = 120 min (MMP-9; t = 120 min (Table 9)) [%] | % cleavage MMP-2 t = 15 min (MMP-2; pH 6.5, t = 15 min (Table 7)) [%] | % cleavage MMP-2 t = 60 min (MMP-2; pH 6.5, t = 60 min (Table 7)) [%] | % cleavage MMP-2 t = 15 min (MMP-2; pH 7.5, t = 15 min (Table 7)) [%] | % cleavage MMP-2 t = 60 min (MMP-2; pH 7.5, t = 60 min (Table 7)) [%] | % cleavage MMP-2 t = 15 min (MMP-2; [4]) [%] | % cleavage MMP-2 t = 60 min (MMP-2; [5]) [%] | % cleavage MMP-2 t = 120 min (MMP-2; [6]) [%] | % cleavage Matriptase t = 15 min (matriptase; pH 6.5, t = 15 min (Table 7)) [%] | % cleavage Matriptase t = 60 min (matriptase; pH 6.5, t = 60 min (Table 7)) [%] | % cleavage Matriptase t = 15 min (matriptase; pH 7.5, t = 15 min (Table 7)) [%] | % cleavage Matriptase t = 60 min (matriptase; pH 7.5, t = 60 min (Table 7)) [%] | Sequence | further results
49 | 91 | 100 | 59 | 100 | 100 | 55 | 100 | 100 | – | – | – | – | – | – | – | – | – | – | – | SGRVAPYMLQG ([2Abz]SGRVAPYMLQG[Tyr(3-NO2)]-NH2) [LNK042] | % cleavage MMP-2 t = 60 min (MMP-2; [1]): 91%; % cleavage MMP-2 t = 120 min (MMP-2; [2]): 100%; % cleavage Matriptase t = 15 min (matriptase; [3]): 28%; % cleavage Matriptase t = 60 min (matriptase; [1]): 80%; % cleavage Matriptase t = 120 min (matriptase; standard conditions (Table 8)): 100%; % cleavage MMP-7 t = 15 min (MMP-7; [3]): 59%; % cleavage MMP-7 t = 60 min (MMP-7; [1]): 100%; % cleavage MMP-7 t = 120 min (MMP-7; [2]): 100%; % cleavage MMP-9 t = 15 min (MMP-9; [3]): 55%; % cleavage MMP-9 t = 60 min (MMP-9; [1]): 100%; % cleavage MMP-9 t = 120 min (MMP-9; [2]): 100%; % vcleavage uPA t = 15 min (uPA; [3]): 2%; % cleavage uPA t = 60 min (uPA; [1]): 6%; % cleavage uPA t = 120 min (uPA; [2]): 13%
91 | 96 | 100 | 25 | 79 | 100 | 98 | 99 | 100 | 100 | 100 | 100 | 100 | 93 | 97 | 97 | 70 | 100 | 100 | 100 | SGRVLRKAGPANLVG ([2Abz]SGRVLRKAGPANLVG[Tyr(3-NO2)]-NH2) [LNK014] | % cleavage Matriptase t = 15 min (matriptase; [7]): 97%; % cleavage Matriptase t = 60 min (matriptase; [8]): 95%; % cleavage Matriptase t = 120 min (matriptase; [9]): 95%; % cleavage uPA t = 60 min (uPA; pH 6.5, t = 60 min (Table 7)): 0%; % cleavage uPA t = 120 min (uPA; pH 6.5, t = 120 min (Table 7)): 0%; % cleavage uPA t = 60 min (uPA; pH 7.5, t = 60 min (Table 7)): 0%; % cleavage uPA t = 120 min (uPA; pH 7.5, t = 120 min (Table 7)): 0%; % cleavage uPA t = 15 min (uPA; [10]): 0%; % cleavage uPA t = 60 min (uPA; [11]): 2%; % cleavage uPA t = 120 min (uPA; [12]): 7%
7 | 34 | 59 | 19 | 62 | 86 | 22 | 72 | 93 | 5 | 39 | 6 | 28 | 8 | 38 | 65 | 48 | 93 | 98 | 100 | SGRVLRKAGPQPLVD ([2Abz]SGRVLRKAGPQPLVD[Tyr(3-NO2)]-NH2) [LNK003] | % cleavage Matriptase t = 15 min (matriptase; [7]): 96%; % cleavage Matriptase t = 60 min (matriptase; [8]): 91%; % cleavage Matriptase t = 120 min (matriptase; [9]): 88%; % cleavage uPA t = 60 min (uPA; pH 6.5, t = 60 min (Table 7)): 0%; % cleavage uPA t = 120 min (uPA; pH 6.5, t = 120 min (Table 7)): 0%; % cleavage uPA t = 60 min (uPA; pH 7.5, t = 60 min (Table 7)): 0%; % cleavage uPA t = 120 min (uPA; pH 7.5, t = 120 min (Table 7)): 0%; % cleavage uPA t = 15 min (uPA; [10]): 3%; % cleavage uPA t = 60 min (uPA; [11]): 10%; % cleavage uPA t = 120 min (uPA; [12]): 20%
